Assay [1] addresses T1, GFP-BC2-tag.
T1 chain: PDRKAAVSHWQQ
In words: SPR; 5 mM DTT (reduced). Background: In SPR one partner is held on a chip, and binding of the other changes the refractive index at the surface.

The target of assay [2] is T1, GFP-BC2-tag. Put plainly: SPR.

B1: anti-BC2-tag VHH (BC2-Nb) (VHH)
VHH: QVQLVESGGGLVQPGGSLTLSCTASGFTLDHYDIGWFRQAPGKEREGVSCINNSDDDTYYADSVKGRFTIFMNNAKDTVYLQMNSLKPEDTAIYYCAEARGCKRGRYEYDFWGQGTQVTVSS
One may read the Kd as the equilibrium constant for the complex coming apart. B1: the results for the Kd with GFP-BC2-tag [1] and with GFP-BC2-tag [2] were 55.2 nM and 9.28 nM, respectively.

Source of the values: paper PMC11432006 (2024).
